Experiments:
[1] = biological target: T1, human granulocyte macrophage colony-stimulating factor (GM-CSF) (human, UniProt P04141 18-144); test: cell-based or functional assay
[2] = biological target: T1, human granulocyte macrophage …; test: cell-based or functional assay; remark: listed apart in the source
[3] = biological target: T1, human granulocyte macrophage …; test: SPR, Biacore 3000, mAb captured on anti-human IgG, GM-CSF as analyte, 25 C
Experimental: The SPR experiments were performed at 25° C. on a Biacore 3000 (GE Healthcare, Piscataway, N.J.) using a CM5 sensor chip and HBS-P (10 mM HEPES, pH 7.4, 150 mM NaCl, 0.01% P-20) or HBS-EP (10 mM HEPES, pH 7.4, 150 mM NaCl, 3 mM EDTA, 0.01% P-20). Anti-human IgG (Fc) (GE Healthcare) or anti-human IgG (Southern Biotech, cat. #2040-01) was immobilized similarly on the experimental and reference flow cells using standard amine coupling. […] GM-CSF made in-house or purchased (Genscript, Cat. #Z00349), was injected over the mAb-coated cell and reference cell at the following concentrations: 100, 50, 25, 12.5, 6.25, 3.12, 1.5 and 0.8 nM. The flow rate was 30 μL/min and triplicate blank injections and replicate injections of the 12.5 nM GM-CSF were included to account for any drift and to ensure assay reproducibility. […] To regenerate the capture surface, two 30 sec pulses of a 2:1 mixture of glycine (pH 2) to 3 M MgCI was utilized. All data were double reference subtracted in that they were subtracted both from the reference cell and from a blank injection. Data were fit to a 1:1 model with (for those with very fast on-rates) or without a mass transport term using the Biacore 3000 evaluation software.

[4] = biological target: T1, human granulocyte macrophage …; test: cell-based or functional assay; remark: listed apart in the source

T1 sequence (P04141 18-144 limits assumed): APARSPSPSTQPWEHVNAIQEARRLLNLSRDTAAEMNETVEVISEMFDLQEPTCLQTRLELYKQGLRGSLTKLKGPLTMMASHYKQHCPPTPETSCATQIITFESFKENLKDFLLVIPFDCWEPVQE

B1: F1 human monoclonal antibody against GM-CSF (antibody, V domains shown)
VH: QVQLQESGPGVVKPSETLSLTCSVSDSAIRKYYWSWIRQPPGQGLEYIGYIYASGSSFYNPSFKSRVSMSVDATNNQFYLKLTSVTAADTAVYYCAAITGTTDLWGRGTLVTVSS
VL: DIQMTQSPSSVSASVGDRVTITCRASQGINRRLAWYQQKPGKAPKRLIYAVSTLQSGVPSRFNGSGSGTDFTLTVNNVQPDDLAMYFCLQSNNYPLTFGGGTKVEIK
notes: also called F1 antibody; purified F1
IC50 (ng/mL), TF-1 assay [1]: 0.8 ng/mL
IC50 (read off the curve); CD11b on human neutrophils in whole blood with 10 ng/mL GM-CSF (FACS), % inhibition [2]: ~50 ng/mL
Kd [3]: 0.12 nM
koff [3]: 0.0001 s⁻¹
kon [3]: 830000 M⁻¹ s⁻¹
IC50, TF-1 assay [4]: < 1 ng/mL
IC50, TF-1 assay (200 pg/mL GM-CSF) [4]: 0.7 to 0.8 ng/mL

— patent publication US20160024200A1 (published 2016)
